The term Kd denotes a measure of binding affinity in units of concentration.

This test addresses Man9GlcNAc2 glycopeptide isolated from soybean agglutinin (soybean, UniProt P05046, Man9GlcNAc2 oligosaccharide, N-linked). Description: SPR; glycopeptide immobilized. On the technique in general: In SPR one partner is held on a chip, and binding of the other changes the refractive index at the surface.

Man9GlcNAc2 glycopeptide isolated from soybean agglutinin, sequence (P05046 whole entry): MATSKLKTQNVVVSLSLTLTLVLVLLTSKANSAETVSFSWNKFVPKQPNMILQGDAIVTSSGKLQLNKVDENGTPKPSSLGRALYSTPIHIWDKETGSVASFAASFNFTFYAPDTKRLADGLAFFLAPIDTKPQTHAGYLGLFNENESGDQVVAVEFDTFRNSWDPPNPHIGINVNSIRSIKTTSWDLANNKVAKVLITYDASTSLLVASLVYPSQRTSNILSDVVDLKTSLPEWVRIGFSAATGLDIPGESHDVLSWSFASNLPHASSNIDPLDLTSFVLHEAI

B1: monomeric carbohydrate-recognition domain (CRD) from DC-SIGN (domain or fragment)
chain: ERLCHPCPWEWTFFQGNCYFMSNSQRNWHDSITACKEVGAQLVVIKSAEEQNFLQLQSSRSNRFTWMGLSDLNQEGTWQWVDGSPLLPSFKQYWNRGEPNNVGEEDCAEFSGNGWNDDKCNLAKFWICKKSAASCSRDEEQFLSPAPATPNPPPA
For the molecule B1, the Kd amounted to 66 µM.

Values taken from PMC2824085 (2010).
